The values below come from publication PMC2575619, “Novel splice variants derived from the receptor tyrosine kinase superfamily are potential therapeutics for rheumatoid arthritis” (Arthritis Research & Therapy, 2008).

One test concerns the target angiopoietin-1 (UniProt Q15389). As to the kind of experiment: ELISA; Ang-1 coated on 96-well plates at 4 μg/ml in PBS; purified Tie1-751(6His) applied, 1.5 hours at room temperature, three rinses in PBS/0.05% Tween-20; detected with biotin-labeled extracellular domain-specific antibody.
Test [1] concerns the target T1, recombinant human VEGFR3/Fc chimera (human, UniProt P35916 25-775).
T1 construct: Human VEGF receptor type 3, the soluble part fused to Fc; Commercial chimera, probably the extracellular domain on human IgG1 Fc; also called soluble VEGFR3/Fc chimera; source: bought: R&D Systems
T1 sequence (looked up): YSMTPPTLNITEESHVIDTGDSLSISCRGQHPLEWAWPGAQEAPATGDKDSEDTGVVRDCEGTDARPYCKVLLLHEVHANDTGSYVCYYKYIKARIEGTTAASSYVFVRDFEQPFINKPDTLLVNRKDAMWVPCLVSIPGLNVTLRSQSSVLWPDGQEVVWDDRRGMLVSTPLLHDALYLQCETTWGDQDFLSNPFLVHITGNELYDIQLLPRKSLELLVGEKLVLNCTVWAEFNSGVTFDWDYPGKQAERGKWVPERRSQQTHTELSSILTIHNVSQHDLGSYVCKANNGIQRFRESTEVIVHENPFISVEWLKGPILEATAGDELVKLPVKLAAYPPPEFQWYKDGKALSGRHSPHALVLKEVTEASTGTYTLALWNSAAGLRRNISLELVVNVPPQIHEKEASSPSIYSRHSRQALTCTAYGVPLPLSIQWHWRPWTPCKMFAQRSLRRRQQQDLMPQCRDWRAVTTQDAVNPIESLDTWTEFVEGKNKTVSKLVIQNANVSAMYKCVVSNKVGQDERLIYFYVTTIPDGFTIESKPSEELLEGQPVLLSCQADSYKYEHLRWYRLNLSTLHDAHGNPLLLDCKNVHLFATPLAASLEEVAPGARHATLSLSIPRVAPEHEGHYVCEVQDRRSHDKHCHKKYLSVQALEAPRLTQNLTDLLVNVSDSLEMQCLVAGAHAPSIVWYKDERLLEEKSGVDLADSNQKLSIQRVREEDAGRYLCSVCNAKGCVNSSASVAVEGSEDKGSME
As to the kind of experiment: co-IP; competition in the solution binding of VEGF-D to VEGFR3-765-Myc: fivefold molar excess of recombinant human VEGFR3/Fc or VEGFR1/Fc chimera; immunoprecipitation with anti-VEGF-D, blot with anti-Myc. The following applies: both partners purified.

Chain of angiopoietin-1 (Q15389 16-498): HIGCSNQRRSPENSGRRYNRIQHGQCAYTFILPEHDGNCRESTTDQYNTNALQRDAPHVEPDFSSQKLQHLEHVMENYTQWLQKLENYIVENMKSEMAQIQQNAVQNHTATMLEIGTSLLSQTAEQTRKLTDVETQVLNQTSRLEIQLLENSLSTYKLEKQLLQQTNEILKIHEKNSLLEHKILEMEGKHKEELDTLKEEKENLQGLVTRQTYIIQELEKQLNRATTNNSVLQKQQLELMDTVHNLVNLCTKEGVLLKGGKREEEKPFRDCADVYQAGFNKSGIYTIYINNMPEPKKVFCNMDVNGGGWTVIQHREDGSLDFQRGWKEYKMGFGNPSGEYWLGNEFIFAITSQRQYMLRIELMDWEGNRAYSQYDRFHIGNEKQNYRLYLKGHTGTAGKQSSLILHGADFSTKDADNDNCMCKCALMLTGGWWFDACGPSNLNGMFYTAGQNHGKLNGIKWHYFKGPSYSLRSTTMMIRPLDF

As for “Tie1-751(6His) (from UniProt P35590-1 22-740) (receptor)”, in the test with angiopoietin-1, the Kd (usually the free concentration of one partner at which half of the binding sites on the other are occupied at equilibrium, for simple one-to-one binding) worked out at 89 nM. That is a double-digit nanomolar value.

B1: VEGF-D (ligand, human, UniProt O43915 89-205, looked up)
chain: FAATFYDIETLKVIDEEWQRTQCSPRETCVEVASELGKSTNTFFKPPCVNVFRCGGCCNEESLICMNTSTSYISKQLFEISVPLTSVPELVPVKVANHTGCKCLPTAPRHPYSIIRR
notes: Human VEGF-D, bought recombinant protein; source: bought: R&D Systems
With B1, the binding result in test [1] was “binds”.
